± gives the uncertainty stated by the source.
B1: Double-stranded RNA-binding protein Staufen homolog 1, residues 183 to 249; numbered along this chain, O95793 (parent)
chain: KSEISQVFEIALKRNLPVNFEVARESGPPHMKNFVTKVSVGEFVGEGEGKSKKISKKNAAIAVLEEL

Variants of: B1
Test: abundance fitness (aPCA) (normalised: wild type 0, dead -1); higher = more abundant; growth selection in yeast, the domain comes from the species named
Details: Homo sapiens

Variant	abundance fitness
KSEISQVFEIALKRNLPVNFEVARESGPPHMKQFVTKVSVGEFVGEGEGKSKKISKKNAAIAVLEEL [N33Q]	-0.047 ± 0.058
KSEISQVFEIALLRNLPVNFEVARESGPPHMKNFVTKVSVGEFVGEGEGKSKKISKKNAAIAVLEEL [K13L]	-0.213 ± 0.042
KSEISQVFEIALKRNLPVNFEVARESGPPHMKNFVTKVSVGEFVGEGEGKSKKISKKNAAIVVLEEL [A62V]	-0.403 ± 0.043
KSEISQVFEIALKRNLPVNFEVARESGPPHMKNFVTKVSVGEFVGEGEGKSLKISKKNAAIAVLEEL [K52L]	-0.228 ± 0.039
KSEISQVFEIALKRNLPVNFEVARESGPPHMKNFVTKVSVGEFVGEGEGKSHKISKKNAAIAVLEEL [K52H]	-0.518 ± 0.084
KSEISQVFEIALKRNLPVNFEVARESGPPHMKNFVTKESVGEFVGEGEGKSKKISKKNAAIAVLEEL [V38E]	-0.554 ± 0.076
KSEISQVFEIALKRNLPVNFEVARESGPPHMKNFVTKVSVGEFVGEGEGKWKKISKKNAAIAVLEEL [S51W]	-0.578 ± 0.19
KSEISQVFEIALKRNLPVNFEVARESGPPHMKNFVTKVSVYEFVGEGEGKSKKISKKNAAIAVLEEL [G41Y]	-1.13 ± 0.39
KSEISQVFEIALKRNLPVNFEVAYESGPPHMKNFVTKVSVGEFVGEGEGKSKKISKKNAAIAVLEEL [R24Y]	-0.246 ± 0.064
KSEISQVFEIALKRNLPVNYEVARESGPPHMKNFVTKVSVGEFVGEGEGKSKKISKKNAAIAVLEEL [F20Y]	-0.291 ± 0.11
KSEISQVFEIALKRNLPVNKEVARESGPPHMKNFVTKVSVGEFVGEGEGKSKKISKKNAAIAVLEEL [F20K]	-0.45 ± 0.061
KSEISQVFEIALKRNLPVNIEVARESGPPHMKNFVTKVSVGEFVGEGEGKSKKISKKNAAIAVLEEL [F20I]	-0.114 ± 0.12
KSEISQVFEIALKRNLPVPFEVARESGPPHMKNFVTKVSVGEFVGEGEGKSKKISKKNAAIAVLEEL [N19P]	-0.698 ± 0.07
KSEQSQVFEIALKRNLPVNFEVARESGPPHMKNFVTKVSVGEFVGEGEGKSKKISKKNAAIAVLEEL [I4Q]	-0.661 ± 0.073
KSEISQVFEIALKRNLPVNFSVARESGPPHMKNFVTKVSVGEFVGEGEGKSKKISKKNAAIAVLEEL [E21S]	-0.078 ± 0.043
KSEISQVFEIALKRNLPVNFEVARESGPPHMKNFVTKVSVGEFVGEGEGKSKKISKKNAFIAVLEEL [A60F]	-0.068 ± 0.081
KSEISQVFEIALKDNLPVNFEVARESGPPHMKNFVTKVSVGEFVGEGEGKSKKISKKNAAIAVLEEL [R14D]	-0.487 ± 0.092
KSEISQVFEIALKLNLPVNFEVARESGPPHMKNFVTKVSVGEFVGEGEGKSKKISKKNAAIAVLEEL [R14L]	-0.139 ± 0.052
KSEISQVFEIALKRNLPLNFEVARESGPPHMKNFVTKVSVGEFVGEGEGKSKKISKKNAAIAVLEEL [V18L]	-0.404 ± 0.044
KSEISQVFEIALKRNLPVNFEVARESGPPHMKNFVTKVSVGEFVNEGEGKSKKISKKNAAIAVLEEL [G45N]	-0.594 ± 0.12

Variant	abundance fitness
KSEISQVFEIALKRNLPVNFEVARESGPPHMKNFVTKVSVGEFVSEGEGKSKKISKKNAAIAVLEEL [G45S]	-0.146 ± 0.04
KSEISQVFEIALKRNLPVNFEVARESGPPHNKNFVTKVSVGEFVGEGEGKSKKISKKNAAIAVLEEL [M31N]	0.083 ± 0.068
KSEISQVFEIALKRNLPVNFEVARESGPPHGKNFVTKVSVGEFVGEGEGKSKKISKKNAAIAVLEEL [M31G]	-0.013 ± 0.036
KSEISQVFEIALKRNLPVNFEVARESGPPHMKNFVTSVSVGEFVGEGEGKSKKISKKNAAIAVLEEL [K37S]	-0.364 ± 0.12
KSEISQVFEIALKRCLPVNFEVARESGPPHMKNFVTKVSVGEFVGEGEGKSKKISKKNAAIAVLEEL [N15C]	-0.325 ± 0.11
KSEISQVFEIALKRNLTVNFEVARESGPPHMKNFVTKVSVGEFVGEGEGKSKKISKKNAAIAVLEEL [P17T]	0.012 ± 0.051
KSEISQVFEIALKRNLPVNFEVARESGPPHMKNFVTKVSVGEFVGEGEGKSKKISKKNAAIAVLEEA [L67A]	-0.509 ± 0.083
KSEISQVFEIALKRNLPVNFEVARESGPPHMKNFVTKVSVGEFVGEGEGKSKKISKKNAAIAVLEES [L67S]	-0.603 ± 0.067
KSEISQVFEIALKRNLPVNFEVARESGPPHMKNFVTKVSVGEFVGEGEGKSKKISKKNAAIAVLEEC [L67C]	-0.693 ± 0.13
KSEISQVFEIALKRNDPVNFEVARESGPPHMKNFVTKVSVGEFVGEGEGKSKKISKKNAAIAVLEEL [L16D]	-0.54 ± 0.16
KSEISQVFEIALKRNQPVNFEVARESGPPHMKNFVTKVSVGEFVGEGEGKSKKISKKNAAIAVLEEL [L16Q]	-0.128 ± 0.082
KSEISQVFEIALKRNLPVNFEVARESGPPHMKNFVTKVSVGEFVGEGEGKSKKISCKNAAIAVLEEL [K56C]	-0.524 ± 0.11
WSEISQVFEIALKRNLPVNFEVARESGPPHMKNFVTKVSVGEFVGEGEGKSKKISKKNAAIAVLEEL [K1W]	-0.514 ± 0.073
KSEISQVFEIALKRNLPVNFEVARESGPPHMKNFVTKVSVGEFYGEGEGKSKKISKKNAAIAVLEEL [V44Y]	-0.099 ± 0.11
KSEISQVFEIALKRNLPVNFEVARESGPMHMKNFVTKVSVGEFVGEGEGKSKKISKKNAAIAVLEEL [P29M]	-0.114 ± 0.046
KSEISQVFEIALKRNLPVNFEVARESGPEHMKNFVTKVSVGEFVGEGEGKSKKISKKNAAIAVLEEL [P29E]	-0.022 ± 0.056
KSEISQVFEIALKRNLPVNFEVARESGYPHMKNFVTKVSVGEFVGEGEGKSKKISKKNAAIAVLEEL [P28Y]	-0.342 ± 0.073
KSEISQVFEIALKRNLPVNFEVARESGPPHMKNFVTKVSVGEFVGEGEGKSKKISKKNAAIAVLERL [E66R]	0.123 ± 0.043
KSEISQVNEIALKRNLPVNFEVARESGPPHMKNFVTKVSVGEFVGEGEGKSKKISKKNAAIAVLEEL [F8N]	-0.317 ± 0.063
KSEISQVFEIALKRNLPVNFEVARESGPPHMKNFVTKVSVGEFVGEGEGKSKKIAKKNAAIAVLEEL [S55A]	-0.092 ± 0.042

Reference: the Human Domainome abundance scans (Beltran et al. 2025)
